The stoichiometry N is a count of units in the complex or per binding partner.

The target of data set [1] is Lon-His (C. crescentus) (UniProt B8GX12).
The target in data set [2] is Lon^EQ (Lon E420Q, Walker-B mutant) (C. crescentus) (UniProt B8GX12). The experiment in a line: native MS; purified proteins buffer exchanged into 200 mM ammonium acetate pH 8.0, mixed in equimolar ratios (LarA also in 3-fold excess); nano ESI, Waters Synapt G2, source temperature 30 °C.
The target of data set [3] is Lon-His (C. crescentus) (UniProt B8GX12). This is another data set of the same source.
Data set [4] deals with the molecule itself. Kind of data set: native MS; purified proteins buffer exchanged into 200 mM ammonium acetate pH 8.0, mixed in equimolar ratios (LarA also in 3-fold excess); nano ESI, Waters Synapt G2, source temperature 30 °C.

In the case of LarA, purified (natural protein), the rate of Lon-mediated His-SciP degradation against LarA concentration (0 to 15 µM), highest at 2 µM LarA, compared with reactions lacking LarA with Lon-His (C. crescentus) [1] was 5.5 fold. The stoichiometry N (LarA molecules per Lon^EQ hexamer) in data set [2] came out at 6.
With 6xHis-tagged SciP (natural protein), in the data set with Lon-His (C. crescentus) [3], the Km of Lon-mediated His-SciP degradation in vitro, in the presence of 2 µM LarA (0.05 µM Lon-His hexamer) was 1.8 µM and the Km of Lon-mediated His-SciP degradation in vitro, without LarA (0.05 µM Lon-His hexamer) was determined as 9.3 µM.

B1: Lon^EQ (Lon E420Q, Walker-B mutant) (enzyme, C. crescentus, UniProt B8GX12 1-799, looked up)
chain: MSELRTLPVLPLRDIVVFPHMVVPLFVGRDKSVRALEEVMRGDKQILLVTQKNSADDDPAPGDIFEVGVLATVLQLLKLPDGTVKVLVEGKARAAVVSFTDQESYYEAQIGEVSEDDGAGPEAEALSRAVVEQFENYVKLNKKVPPEALASIPQIAEPGKLADSIAAHLSVKIGDKQNLLEIFDVVKRLEKVFALMEGEISVLQVEKKIRSRVKRQMEKTQREYYLNEQMKAIQRELGDPDDARDELIDLEKRIKKTKLSKEARTKAESELKKLRNMSPMSAESTVVRNYLDWLLSIPWGKAKTKKIDLVESEGILDADHYGLEKVKERILEYLAVQARTNSLKGPILCLVGPPGVGKTSLGKSIAKATGREFVRMSLGGVRDEAEIRGHRRTYIGSMPGKVVQSMKKAKTTNAFVLLDQIDKMGSDYRGDPASALLEVLDPSQNSTFGDHYLEVDYDLSQVMFVTTANSLNMPQPLLDRMEIIRIPGYTEDEKLEIAKRHILPKLAKDHGLKPAEFIVPDKAIRDLIRYYTREAGVRSLERELGALARKTVRDLAREKVASITIDDERLAKYAGVKKYRYGETDEVDQVGIVTGLAWTEFGGDILTIEAVKMPGKGRMQITGNLKDVMKESIAAANSYVRSRALQFGIKPPVFEKTDVHIHVPDGATPKDGPSAGIAMALAMVSVLTGIPIRKDIAMTGEITLRGRVTAIGGLKEKLLAALRSGVKTVLIPQENEKDLADVPQTVKDGLEIIPVSTVDEVLKHALTGPLTPVEWNEAEEPITTSAKKDDGDSDAMLTH
notes: predicted molecular weight of the hexamer 529,458 Da; Deficient in ATP hydrolysis; source: E. coli BL21-SI/pCodonPlus, purified (Talon, Ulp1 cleavage, anion exchange)
In the case of B1, the “stoichiometry N” value in data set [4] was 6.

These data come from article PMC10665427, “The heat shock protein LarA activates the Lon protease in response to proteotoxic stress” (Nature Communications, 2023).
